From the supplement of paper PMC12458215
± gives the uncertainty stated by the source.

System: HEK293T
Assay: plasma membrane surface immunostaining intensity (anti-HA, deep receptor scanning) (arbitrary fluorescence units); higher = higher plasma membrane expression

Sequence	plasma membrane surface immunostaining intensity (GPCR class: A)	further results
MNATGTPVAPESCQQLAAGGHSRLIVLHYNHSGRLAGRGGPEDGGLGALRGLSVAASCLVVLENLLVLAAITSHMRSRRWVYYCLVNITLSDLLTGAAYLANVLLSGARTFRLAPAQWFLREGLLFTALAASTFSLLFTAGERFATMVRPVAESGATKTSRVYGFIGLCWLLAALLGMLPLLGWNCLCAFDRCSSLLPLYSKRYILFCLVIFAGVLATIMGLYGAIFRLVQASGQKAPRPAARRKARRLLKTVLMILLAFLVCWGPLFGLLLADVFGSNLWAQEYLRGMDWILALAVLNSAVNPIIYSFRSREVCRAVLSFLCCGCLRLGMRGPGDCLARAVEAHSGASTTDSSLRPRDSFRGSRSLSFRMREPLSSISSVRSI [S1PR4]	6452 ± 53	
MFLYLCFIFQRTCSEEMEEENATLLTEFVLTGFLHQPDCKIPLFLAFLVIYLITIMGNLGLIVLIWKDPHLHIPMYLFLGSLAFVDASLSSTVTPKMLINFLAKSKMISLSECMVQFFSLVTTVTTECFLLATMAYDRYVAICKALLYPVIMTNELCIQLLVLSFIGGLLHALIHEAFSFRLTFCNSNIIQHFYCDIIPLLKISCTDSSINFLMVFIFAGSVQVFTIGTILISYTIILFTILEKKSIKGIRKAVSTCGAHLLSVSLYYGPLTFKYLGSASPQADDQDMMESLFYTVIVPLLNPMIYSLRNKQVIASFTKMFKSNV [OR5H6]		plasma membrane surface immunostaining intensity (GPCR class: A (Olfactory)): 123 ± 24
MAVQGSQRRLLGSLNSTPTAIPQLGLAANQTGARCLEVSISDGLFLSLGLVSLVENALVVATIAKNRNLHSPMYCFICCLALSDLLVSGSNVLETAVILLLEAGALVARAAVLQQLDNVIDVITCSSMLSSLCFLGAIAVDRYISIFYALRYHSIVTLPRARRAVAAIWVASVVFSTLFIAYYDHVAVLLCLVVFFLAMLVLMAVLYVHMLARACQHAQGIARLHKRQRPVHQGFGLKGAVTLTILLGIFFLCWGPFFLHLTLIVLCPEHPTCGCIFKNFNLFLALIICNAIIDPLIYAFHSQELRRTLKEVLTCSW [MC1R]	299 ± 43	
MTFRDLLSVSFEGPRPDSSAGGSSAGGGGGSAGGAAPSEGPAVGGVPGGAGGGGGVVGAGSGEDNRSSAGEPGSAGAGGDVNGTAAVGGLVVSAQGVGVGVFLAAFILMAVAGNLLVILSVACNRHLQTVTNYFIVNLAVADLLLSATVLPFSATMEVLGFWAFGRAFCDVWAAVDVLCCTASILSLCTISVDRYVGVRHSLKYPAIMTERKAAAILALLWVVALVVSVGPLLGWKEPVPPDERFCGITEEAGYAVFSSVCSFYLPMAVIVVMYCRVYVVARSTTRSLEAGVKRERGKASEVVLRIHCRGAATGADGAHGMRSAKGHTFRSSLSVRLLKFSREKKAAKTLAIVVGVFVLCWFPFFFVLPLGSLFPQLKPSEGVFKVIFWLGYFNSCVNPLIYPCSSREFKRAFLRLLRCQCRRRRRRRPLWRVYGHHWRASTSGLRQDCAPSSGDAPPGAPLALTALPDPDPEPPGTPEMQAPVASRRKPPSAFREWRLLGPFRRPTTQLRAKVSSLSHKIRAGGAQRAEAACAQRSEVEAVSLGVPHEVAEGATCQAYELADYSNLRETDI [ADRA1D]	125 ± 25	
MAFLIILITCFVIILATSQPCQTPDDFVAATSPGHIIIGGLFAIHEKMLSSEDSPRRPQIQECVGFEISVFLQTLAMIHSIEMINNSTLLPGVKLGYEIYDTCTEVTVAMAATLRFLSKFNCSRETVEFKCDYSSYMPRVKAVIGSGYSEITMAVSRMLNLQLMPQVGYESTAEILSDKIRFPSFLRTVPSDFHQIKAMAHLIQKSGWNWIGIITTDDDYGRLALNTFIIQAEANNVCIAFKEVLPAFLSDNTIEVRINRTLKKIILEAQVNVIVVFLRQFHVFDLFNKAIEMNINKMWIASDNWSTATKITTIPNVKKIGKVVGFAFRRGNISSFHSFLQNLHLLPSDSHKLLHEYAMHLSACAYVKDTDLSQCIFNHSQRTLAYKANKAIERNFVMRNDFLWDYAEPGLIHSIQLAVFALGYAIRDLCQARDCQNPNAFQPWELLGVLKNVTFTDGWNSFHFDAHGDLNTGYDVVLWKEINGHMTVTKMAEYDLQNDVFIIPDQETKNEFRNLKQIQSKCSKECSPGQMKKTTRSQHICCYECQNCPENHYTNQTDMPHCLLCNNKTHWAPVRSTMCFEKEVEYLNWNDSLAILLLILSLLGIIFVLVVGIIFTRNLNTPVVKSSGGLRVCYVILLCHFLNFASTSFFIGEPQDFTCKTRQTMFGVSFTLCISCILTKSLKILLAFSFDPKLQKFLKCLYRPILIIFTCTGIQVVICTLWLIFAAPTVEVNVSLPRVIILECEEGSILAFGTMLGYIAILAFICFIFAFKGKYENYNEAKFITFGMLIYFIAWITFIPIYATTFGKYVPAVEIIVILISNYGILYCTFIPKCYVIICKQEINTKSAFLKMIYSYSSHSVSSIALSPASLDSMSGNVTMTNPSSSGKSATWQKSKDLQAQAFAHICRENATSVSKTLPRKRMSSI [GPRC6A]		plasma membrane surface immunostaining intensity (GPCR class: C): 158 ± 24
MGHNGSWISPNASEPHNASGAEAAGVNRSALGEFGEAQLYRQFTTTVQVVIFIGSLLGNFMVLWSTCRTTVFKSVTNRFIKNLACSGICASLVCVPFDIILSTSPHCCWWIYTMLFCKVVKFLHKVFCSVTILSFPAIALDRYYSVLYPLERKISDAKSRELVMYIWAHAVVASVPVFAVTNVADIYATSTCTEVWSNSLGHLVYVLVYNITTVIVPVVVVFLFLILIRRALSASQKKKVIIAALRTPQNTISIPYASQREAELHATLLSMVMVFILCSVPYATLVVYQTVLNVPDTSVFLLLTAVWLPKVSLLANPVLFLTVNKSVRKCLIGTLVQLHHRYSRRNVVSTGSGMAEASLEPSIRSGSQLLEMFHIGQQQIFKPTEDEEESEAKYIGSADFQAKEIFSTCLEGEQGPQFAPSAPPLSTVDSVSQVAPAAPVEPETFPDKYSLQFGFGPFELPPQWLSETRNSKKRLLPPLGNTPEELIQTKVPKVGRVERKMSRNNKVSIFPKVDS [GPR176]	6400 ± 100	
MGGRVFLVFLAFCVWLTLPGAETQDSRGCARWCPQDSSCVNATACRCNPGFSSFSEIITTPMETCDDINECATLSKVSCGKFSDCWNTEGSYDCVCSPGYEPVSGAKTFKNESENTCQDVDECQQNPRLCKSYGTCVNTLGSYTCQCLPGFKLKPEDPKLCTDVNECTSGQNPCHSSTHCLNNVGSYQCRCRPGWQPIPGSPNGPNNTVCEDVDECSSGQHQCDSSTVCFNTVGSYSCRCRPGWKPRHGIPNNQKDTVCEDMTFSTWTPPPGVHSQTLSRFFDKVQDLGRDYKPGLANNTIQSILQALDELLEAPGDLETLPRLQQHCVASHLLDGLEDVLRGLSKNLSNGLLNFSYPAGTELSLEVQKQVDRSVTLRQNQAVMQLDWNQAQKSGDPGPSVVGLVSIPGMGKLLAEAPLVLEPEKQMLLHETHQGLLQDGSPILLSDVISAFLSNNDTQNLSSPVTFTFSHRSVIPRQKVLCVFWEHGQNGCGHWATTGCSTIGTRDTSTICRCTHLSSFAVLMAHYDVQEEDPVLTVITYMGLSVSLLCLLLAALTFLLCKAIQNTSTSLHLQLSLCLFLAHLLFLVAIDQTGHKVLCSIIAGTLHYLYLATLTWMLLEALYLFLTARNLTVVNYSSINRFMKKLMFPVGYGVPAVTVAISAASRPHLYGTPSRCWLQPEKGFIWGFLGPVCAIFSVNLVLFLVTLWILKNRLSSLNSEVSTLRNTRMLAFKATAQLFILGCTWCLGILQVGPAARVMAYLFTIINSLQGVFIFLVYCLLSQQVREQYGKWSKGIRKLKTESEMHTLSSSAKADTSKPSTVN [ADGRE2]		plasma membrane surface immunostaining intensity (GPCR class: B): 6310 ± 78
MTSGSVFFYILIFGKYFSHGGGQDVKCSLGYFPCGNITKCLPQLLHCNGVDDCGNQADEDNCGDNNGWSLQFDKYFASYYKMTSQYPFEAETPECLVGSVPVQCLCQGLELDCDETNLRAVPSVSSNVTAMSLQWNLIRKLPPDCFKNYHDLQKLYLQNNKITSISIYAFRGLNSLTKLYLSHNRITFLKPGVFEDLHRLEWLIIEDNHLSRISPPTFYGLNSLILLVLMNNVLTRLPDKPLCQHMPRLHWLDLEGNHIHNLRNLTFISCSNLTVLVMRKNKINHLNENTFAPLQKLDELDLGSNKIENLPPLIFKDLKELSQLNLSYNPIQKIQANQFDYLVKLKSLSLEGIEISNIQQRMFRPLMNLSHIYFKKFQYCGYAPHVRSCKPNTDGISSLENLLASIIQRVFVWVVSAVTCFGNIFVICMRPYIRSENKLYAMSIISLCCADCLMGIYLFVIGGFDLKFRGEYNKHAQLWMESTHCQLVGSLAILSTEVSVLLLTFLTLEKYICIVYPFRCVRPGKCRTITVLILIWITGFIVAFIPLSNKEFFKNYYGTNGVCFPLHSEDTESIGAQIYSVAIFLGINLAAFIIIVFSYGSMFYSVHQSAITATEIRNQVKKEMILAKRFFFIVFTDALCWIPIFVVKFLSLLQVEIPGTITSWVVIFILPINSALNPILYTLTTRPFKEMIHRFWYNYRQRKSMDSKGQKTYAPSFIWVEMWPLQEMPPELMKPDLFTYPCEMSLISQSTRLNSYS [RXFP1]	165 ± 19	
MRRNCTLVTEFILLGLTSRRELQILLFTLFLAIYMVTVAGNLGMIVLIQANAWLHMPMYFFLSHLSFVDLCFSSNVTPKMLEIFLSEKKSISYPACLVQCYLFIALVHVEIYILAVMAFDRYMAICNPLLYGSRMSKSVCSFLITVPYVYGALTGLMETMWTYNLAFCGPNEINHFYCADPPLIKLACSDTYNKELSMFIVAGWNLSFSLFIICISYLYIFPAILKIRSTEGRQKAFSTCGSHLTAVTIFYATLFFMYLRPPSKESVEQGKMVAVFYTTVIPMLNLIIYSLRNKNVKEALIKELSMKIYFS [OR5M8]		plasma membrane surface immunostaining intensity (GPCR class: A (Olfactory)): 115 ± 18
MASPRSSGQPGPPPPPPPPPARLLLLLLLPLLLPLAPGAWGWARGAPRPPPSSPPLSIMGLMPLTKEVAKGSIGRGVLPAVELAIEQIRNESLLRPYFLDLRLYDTECDNAKGLKAFYDAIKYGPNHLMVFGGVCPSVTSIIAESLQGWNLVQLSFAATTPVLADKKKYPYFFRTVPSDNAVNPAILKLLKHYQWKRVGTLTQDVQRFSEVRNDLTGVLYGEDIEISDTESFSNDPCTSVKKLKGNDVRIILGQFDQNMAAKVFCCAYEENMYGSKYQWIIPGWYEPSWWEQVHTEANSSRCLRKNLLAAMEGYIGVDFEPLSSKQIKTISGKTPQQYEREYNNKRSGVGPSKFHGYAYDGIWVIAKTLQRAMETLHASSRHQRIQDFNYTDHTLGRIILNAMNETNFFGVTGQVVFRNGERMGTIKFTQFQDSREVKVGEYNAVADTLEIINDTIRFQGSEPPKDKTIILEQLRKISLPLYSILSALTILGMIMASAFLFFNIKNRNQKLIKMSSPYMNNLIILGGMLSYASIFLFGLDGSFVSEKTFETLCTVRTWILTVGYTTAFGAMFAKTWRVHAIFKNVKMKKKIIKDQKLLVIVGGMLLIDLCILICWQAVDPLRRTVEKYSMEPDPAGRDISIRPLLEHCENTHMTIWLGIVYAYKGLLMLFGCFLAWETRNVSIPALNDSKYIGMSVYNVGIMCIIGAAVSFLTRDQPNVQFCIVALVIIFCSTITLCLVFVPKLITLRTNPDAATQNRRFQFTQNQKKEDSKTSTSVTSVNQASTSRLEGLQSENHRLRMKITELDKDLEEVTMQLQDTPEKTTYIKQNHYQELNDILNLGNFTESTDGGKAILKNHLDQNPQLQWNTTEPSRTCKDPIEDINSPEHIQRRLSLQLPILHHAYLPSIGGVDASCVSPCVSPTASPRHRHVPPSFRVMVSGL [GABBR2]		plasma membrane surface immunostaining intensity (GPCR class: C): 6210 ± 48
MWGRLLLWPLVLGFSLSGGTQTPSVYDESGSTGGGDDSTPSILPAPRGYPGQVCANDSDTLELPDSSRALLLGWVPTRLVPALYGLVLVVGLPANGLALWVLATQAPRLPSTMLLMNLAAADLLLALALPPRIAYHLRGQRWPFGEAACRLATAALYGHMYGSVLLLAAVSLDRYLALVHPLRARALRGRRLALGLCMAAWLMAAALALPLTLQRQTFRLARSDRVLCHDALPLDAQASHWQPAFTCLALLGCFLPLLAMLLCYGATLHTLAASGRRYGHALRLTAVVLASAVAFFVPSNLLLLLHYSDPSPSAWGNLYGAYVPSLALSTLNSCVDPFIYYYVSAEFRDKVRAGLFQRSPGDTVASKASAEGGSRGMGTHSSLLQ [F2RL3]	894 ± 240	
